Tests used:
[1] = biological target: T1, mouse PD-L1 on transfected CHO cells (mouse, UniProt Q9EP73 19-290); test: flow cytometry on CHO/mPD-L1 cells, one antibody amount, not given
T1 construct: whole, on cells; also called mPD-L1; CHO/mPD-L1
Method: CHO cells transfected with mouse PD-L1 (CHO/mPD-L1) were used to assess the species cross-reactivity of the anti-hPD-L1 mAb with mouse PD-L1. The cells were incubated with the anti-hPD-L1 mAb prior to flow cytometry analysis.

hPD-L1mIg fusion protein [2] = biological target: T2, hPD-L1mIg fusion protein (human, UniProt Q9NZQ7 19-238); test: SPR, Biacore T200; hPD-L1 mIg amine-coupled on CM5 chip, antibody injected at 1-32 nM, full kinetic analysis
T2 construct: also called hPD-L1 mIg protein; biotin-labeled hPD-L1-mouse Fc fusion protein; not shown: mouse Ig (Fc) part
T2 sequence (Q9NZQ7 19-238): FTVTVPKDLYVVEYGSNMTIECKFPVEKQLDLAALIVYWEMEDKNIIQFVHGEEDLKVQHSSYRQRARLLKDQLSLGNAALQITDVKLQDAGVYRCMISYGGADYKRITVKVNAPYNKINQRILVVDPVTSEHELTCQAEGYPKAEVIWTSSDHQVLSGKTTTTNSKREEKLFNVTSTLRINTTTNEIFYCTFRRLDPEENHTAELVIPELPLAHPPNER
Method: The binding affinities and kinetics between the humanized anti-hPD-L1 mAbs and the hPD-L1 protein were assessed with Biacore T200 (GE Healthcare Life Sciences). The hPD-L1 mIg protein was immobilized on the sensor chip CM5 by amine coupling. The parental and humanized antibodies were injected at a concentration gradient of 1, 2, 4, 8, 16, and 32 nM. Binding kinetic parameters, including association rate (Kₒₙ), dissociation rate (Koff), and affinity constant (KD) were determined by full kinetic analysis. […] As shown in Table 7 and FIG. 4, the antibodies with dissociation rates (Koff) from the lowest to the highest were: parental (PA200), H1+L2 (H12), H3+L2 (H32), H1+L1 (H11), H1+L3 (H13), H3+L1 (H31), H3+L3 (H33), H2+L2 (H22), H2+L1 (H21), and H2+L3 (H23).

hPD-L1mIg fusion protein [3] = biological target: T2, hPD-L1mIg fusion protein; test: BLI, ForteBio Octet RED96; biotin-labeled hPD-L1-mouse Fc on SA sensors, 1:1 model
Method: All samples were prepared in PBS buffer (pH=7.4). The biotin-labeled hPD-L1-mouse Fc fusion protein was loaded onto SA sensors at a pre-determined loading threshold. scFv (PD-L1) was applied to the sensors at a concentration gradient of 3.125 nM-50 nM. Background subtraction was used to correct for sensor drifting. The data was fit to a 1:1 binding model using ForteBio's data analysis software in order to obtain the association (Kₒₙ) and dissociation (Koff) rates. The KD values were calculated based on Koff/Kₒₙ.

T1 sequence (Q9EP73 19-290): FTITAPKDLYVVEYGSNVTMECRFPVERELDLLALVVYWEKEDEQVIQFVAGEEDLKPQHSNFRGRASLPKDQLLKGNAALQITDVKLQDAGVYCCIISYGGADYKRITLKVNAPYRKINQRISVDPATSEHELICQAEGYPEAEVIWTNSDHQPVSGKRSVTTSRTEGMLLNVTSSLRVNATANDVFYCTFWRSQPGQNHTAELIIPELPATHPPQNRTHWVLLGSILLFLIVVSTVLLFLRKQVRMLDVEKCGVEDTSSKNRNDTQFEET

Row | binding result [1] | Kd (hPD-L1mIg fusion protein [2]) [nM] | koff (hPD-L1mIg fusion protein [2]) [s⁻¹] | kon (hPD-L1mIg fusion protein [2]) [M⁻¹ s⁻¹] | Kd (hPD-L1mIg fusion protein [3]) [nM] | koff (hPD-L1mIg fusion protein [3]) [s⁻¹] | kon (hPD-L1mIg fusion protein [3]) [M⁻¹ s⁻¹] | Binder
1 | binds | – | – | – | – | – | – | anti-hPD-L1 mAb 5B7 (antibody, IgG1, V domains shown, also called anti hPD-L1 monoclonal antibody 5B7; anti-hPD-L1 monoclonal antibody) VH: EVQLQQSGAELVKPGASVKLSCTASGFNIKDTYMYWVKQRPEQGLECIGRIDPANDNTKYDPKFQGKATITADTSSNTAYVQLASLTSEDTAVYYCARAKNLLNYFDYWGQGTTLTVSS VL: DIQMTQSPSSLSASLGERVTLSCRASQEISGYLSWLQQKPDGTIKRLIYATSTLDSGVPKRFSGSRSGSDYSLTISSLESEDFADYYCLQYAIYPLTFGAGTKLELKR
2 | – | 0.128 | 0.000118 | 924000 | – | – | – | anti-PD-L1 parental (mouse-human chimeric mAb) (antibody, human IgG1, kappa, V domains shown, its variable domains are the same; also called parental chimeric antibody; parental (PA200)) VH: EVQLQQSGAELVKPGASVKLSCTASGFNIKDTYMYWVKQRPEQGLECIGRIDPANDNTKYDPKFQGKATITADTSSNTAYVQLASLTSEDTAVYYCARAKNLLNYFDYWGQGTTLTVSS VL: DIQMTQSPSSLSASLGERVTLSCRASQEISGYLSWLQQKPDGTIKRLIYATSTLDSGVPKRFSGSRSGSDYSLTISSLESEDFADYYCLQYAIYPLTFGAGTKLELKR
3 | – | – | – | – | 6.92 | 0.000225 | 32600 | parental humanized IgG1 positive control antibody (antibody, V domains shown, also called anti-PD-L1 IgG1; Anti-Human PD-L1 IgG1) VH: QVQLVQSGAEVKKPGASVKVSCKASGFNIKDTYMYWVRQAPGQGLEWMGRIDPANDNTKYAQKFQGRVTITADTSTSTAYMELSSLRSEDTAVYYCARAKNLLNYFDYWGQGTLVTVSS VL: DIQMTQSPSSLSASVGDRVTITCRASQEISGYLSWLQQKPGKAPKRLIYATSTLQSGVPSRFSGSRSGTDYTLTISSLQPEDFATYYCLQYAIYPLTFGQGTKLEIKR
4 | – | 0.557 | 0.000811 | 1.46e+06 | – | – | – | anti-PD-L1 HC1 + LC2 (antibody, V domains shown, Humanized antibody, Humanized VH 1 + Humanized VL 2; also called H1+L2; H12) VH: QVQLVQSGAEVKKPGASVKVSCKASGFNIKDTYMYWVRQAPGQGLEWMGRIDPANDNTKYAQKFQGRVTITADTSTSTAYMELSSLRSEDTAVYYCARAKNLLNYFDYWGQGTLVTVSS VL: DIQMTQSPSSLSASVGDRVTITCRASQEISGYLSWLQQKPGKAPKRLIYATSTLQSGVPSRFSGSRSGTDYTLTISSLQPEDFATYYCLQYAIYPLTFGQGTKLEIKR
5 | – | 1.38 | 0.0012 | 869000 | – | – | – | anti-PD-L1 HC1 + LC1 (antibody, V domains shown, Humanized antibody, Humanized VH 1 + Humanized VL 1; also called H1+L1; H11) VH: QVQLVQSGAEVKKPGASVKVSCKASGFNIKDTYMYWVRQAPGQGLEWMGRIDPANDNTKYAQKFQGRVTITADTSTSTAYMELSSLRSEDTAVYYCARAKNLLNYFDYWGQGTLVTVSS VL: DIQMTQSPSSLSASVGDRVTITCRASQEISGYLSWYQQKPGKAPKRLIYATSTLDSGVPSRFSGSGSGTDFTLTISSLQPEDFATYYCLQYAIYPLTFGQGTKLEIKR
6 | – | 2.18 | 0.00406 | 1.86e+06 | – | – | – | anti-PD-L1 HC2 + LC1 (antibody, V domains shown, Humanized antibody, Humanized VH 2 + Humanized VL 1; also called H2+L1; H21) VH: QVQLVQSGAEVKKPGASVKVSCKASGFNIKDTYMYWVRQAPGQGLEWIGRIDPANDNTKYAPKFQGRVTITADTSTNTAYMELSSLRSEDTAVYYCARAKNLLNYFDYWGQGTLVTVSS VL: DIQMTQSPSSLSASVGDRVTITCRASQEISGYLSWYQQKPGKAPKRLIYATSTLDSGVPSRFSGSGSGTDFTLTISSLQPEDFATYYCLQYAIYPLTFGQGTKLEIKR
7 | – | 1.23 | 0.00251 | 2.05e+06 | – | – | – | anti-PD-L1 HC2 + LC2 (antibody, V domains shown, Humanized antibody, Humanized VH 2 + Humanized VL 2; also called H2+L2; H22) VH: QVQLVQSGAEVKKPGASVKVSCKASGFNIKDTYMYWVRQAPGQGLEWIGRIDPANDNTKYAPKFQGRVTITADTSTNTAYMELSSLRSEDTAVYYCARAKNLLNYFDYWGQGTLVTVSS VL: DIQMTQSPSSLSASVGDRVTITCRASQEISGYLSWLQQKPGKAPKRLIYATSTLQSGVPSRFSGSRSGTDYTLTISSLQPEDFATYYCLQYAIYPLTFGQGTKLEIKR
8 | – | 1.84 | 0.00417 | 2.26e+06 | – | – | – | anti-PD-L1 HC2 + LC3 (antibody, V domains shown, Humanized antibody, Humanized VH 2 + Humanized VL 3; also called H2+L3; H23) VH: QVQLVQSGAEVKKPGASVKVSCKASGFNIKDTYMYWVRQAPGQGLEWIGRIDPANDNTKYAPKFQGRVTITADTSTNTAYMELSSLRSEDTAVYYCARAKNLLNYFDYWGQGTLVTVSS VL: DIQMTQSPSSLSASVGDRVTITCRASQEISGYLSWYQQKPGKAPKRLIYATSTLDSGVPSRFSGSRSGSDYTLTISSLQPEDFATYYCLQYAIYPLTFGQGTKLEIKR
9 | – | 0.666 | 0.0011 | 1.65e+06 | – | – | – | anti-PD-L1 HC3 + LC2 (antibody, V domains shown, Humanized antibody, Humanized VH3 + Humanized VL 2; also called H3+L2; H32) VH: EVQLVQSGAEVKKPGASVKVSCKASGFNIKDTYMYWVRQAPGQGLEWMGRIDPANDNTKYAQKFQGRVTITADTSTNTAYMELSSLRSEDTAVYYCARAKNLLNYFDYWGQGTLVTVSS VL: DIQMTQSPSSLSASVGDRVTITCRASQEISGYLSWLQQKPGKAPKRLIYATSTLQSGVPSRFSGSRSGTDYTLTISSLQPEDFATYYCLQYAIYPLTFGQGTKLEIKR
10 | – | 1.17 | 0.00146 | 1.25e+06 | – | – | – | anti-PD-L1 HC3 + LC1 (antibody, V domains shown, Humanized antibody, Humanized VH3 + Humanized VL 1; also called H3+L1; H31) VH: EVQLVQSGAEVKKPGASVKVSCKASGFNIKDTYMYWVRQAPGQGLEWMGRIDPANDNTKYAQKFQGRVTITADTSTNTAYMELSSLRSEDTAVYYCARAKNLLNYFDYWGQGTLVTVSS VL: DIQMTQSPSSLSASVGDRVTITCRASQEISGYLSWYQQKPGKAPKRLIYATSTLDSGVPSRFSGSGSGTDFTLTISSLQPEDFATYYCLQYAIYPLTFGQGTKLEIKR
11 | – | 1.3 | 0.00143 | 1.1e+06 | – | – | – | anti-PD-L1 HC1 + LC3 (antibody, V domains shown, Humanized antibody, Humanized VH 1 + Humanized VL 3; also called H1+L3; H13) VH: QVQLVQSGAEVKKPGASVKVSCKASGFNIKDTYMYWVRQAPGQGLEWMGRIDPANDNTKYAQKFQGRVTITADTSTSTAYMELSSLRSEDTAVYYCARAKNLLNYFDYWGQGTLVTVSS VL: DIQMTQSPSSLSASVGDRVTITCRASQEISGYLSWYQQKPGKAPKRLIYATSTLDSGVPSRFSGSRSGSDYTLTISSLQPEDFATYYCLQYAIYPLTFGQGTKLEIKR
12 | – | 1 | 0.00146 | 1.46e+06 | – | – | – | anti-PD-L1 HC3 + LC3 (antibody, V domains shown, Humanized antibody, Humanized VH3 + Humanized VL 3; also called H3+L3; H33) VH: EVQLVQSGAEVKKPGASVKVSCKASGFNIKDTYMYWVRQAPGQGLEWMGRIDPANDNTKYAQKFQGRVTITADTSTNTAYMELSSLRSEDTAVYYCARAKNLLNYFDYWGQGTLVTVSS VL: DIQMTQSPSSLSASVGDRVTITCRASQEISGYLSWYQQKPGKAPKRLIYATSTLDSGVPSRFSGSRSGSDYTLTISSLQPEDFATYYCLQYAIYPLTFGQGTKLEIKR

— patent US20210213145A1 (TAYU HUAXIA BIOTECH MEDICAL GROUP, published 2021)
